Experiments:
[1] = molecular target: human ADAM9 (Disintegrin and Metalloproteinase Domain-containing Protein 9), on cells (human) (UniProt Q13443); assay: IHC staining of human tumour tissue: Breast CA (USA-00329); antibody at 0.4 µg/mL
[2] = molecular target: human ADAM9 (Disintegrin and Metalloproteinase Domain-containing Protein 9), on cells (human) (UniProt Q13443); assay: IHC staining of human tumour tissue: Colon CA (ILS10341 B); antibody at 0.4 µg/mL
[3] = molecular target: human ADAM9 (Disintegrin and Metalloproteinase Domain-containing Protein 9), on cells (human) (UniProt Q13443); assay: IHC staining of human tumour tissue: Colon CA (ILS10369 B); antibody at 0.4 µg/mL
[4] = molecular target: human ADAM9 (Disintegrin and Metalloproteinase Domain-containing Protein 9), on cells (human) (UniProt Q13443); assay: IHC staining of human tumour tissue: Colon CA (ILS11330 B); antibody at 0.4 µg/mL
[5] = molecular target: human ADAM9 (Disintegrin and Metalloproteinase Domain-containing Protein 9), on cells (human) (UniProt Q13443); assay: IHC staining of human tumour tissue: Gastric CA (ILS-450 A); antibody at 0.4 µg/mL
[6] = molecular target: human ADAM9 (Disintegrin and Metalloproteinase Domain-containing Protein 9), on cells (human) (UniProt Q13443); assay: IHC staining of human tumour tissue: Colon CA (AGR-00237 B); antibody at 0.4 µg/mL
[7] = molecular target: human ADAM9 (Disintegrin and Metalloproteinase Domain-containing Protein 9), on cells (human) (UniProt Q13443); assay: IHC staining of human tumour tissue: Prostate CA (ILS20758-D3); antibody at 0.4 µg/mL
[8] = molecular target: human ADAM9 (Disintegrin and Metalloproteinase Domain-containing Protein 9), on cells (human) (UniProt Q13443); assay: IHC staining of human tumour tissue: NSCLC (ILS10901), Adenocarcinoma; antibody at 0.4 µg/mL
[9] = molecular target: human ADAM9 (Disintegrin and Metalloproteinase Domain-containing Protein 9), on cells (human) (UniProt Q13443); assay: IHC staining of human tumour tissue: NSCLC (ILS10108), Large Cell Carcinoma; antibody at 0.4 µg/mL
[10] = molecular target: human ADAM9 (Disintegrin and Metalloproteinase Domain-containing Protein 9), on cells (human) (UniProt Q13443); assay: IHC staining of human tumour tissue: NSCLC (ILS7223), Squamous Cell Carcinoma; antibody at 0.4 µg/mL
[11] = molecular target: human ADAM9 (Disintegrin and Metalloproteinase Domain-containing Protein 9), on cells (human) (UniProt Q13443); assay: IHC staining of human tumour tissue: NSCLC (ILS7115 D), Squamous Cell Carcinoma; antibody at 0.4 µg/mL

human ADAM9 (Disintegrin and Metalloproteinase Domain-containing Protein 9), on cells (human), sequence (Q13443 206-819): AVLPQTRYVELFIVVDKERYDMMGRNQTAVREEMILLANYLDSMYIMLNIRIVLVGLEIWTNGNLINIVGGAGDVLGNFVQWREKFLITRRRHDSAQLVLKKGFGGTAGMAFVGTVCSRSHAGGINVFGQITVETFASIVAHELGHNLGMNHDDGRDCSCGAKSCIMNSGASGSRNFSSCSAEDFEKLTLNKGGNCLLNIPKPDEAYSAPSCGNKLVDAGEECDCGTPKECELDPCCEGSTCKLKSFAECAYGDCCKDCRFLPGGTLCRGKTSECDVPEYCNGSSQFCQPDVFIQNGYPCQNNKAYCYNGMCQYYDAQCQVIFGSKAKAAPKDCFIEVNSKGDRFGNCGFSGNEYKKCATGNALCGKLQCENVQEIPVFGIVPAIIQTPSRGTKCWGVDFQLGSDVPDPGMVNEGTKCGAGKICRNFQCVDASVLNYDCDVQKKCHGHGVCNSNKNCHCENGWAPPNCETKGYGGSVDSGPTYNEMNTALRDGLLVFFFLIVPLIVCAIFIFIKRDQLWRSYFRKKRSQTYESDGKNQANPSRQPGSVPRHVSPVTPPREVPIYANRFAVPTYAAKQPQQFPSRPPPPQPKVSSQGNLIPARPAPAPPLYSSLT

Score [1]: 3
Score [2]: 2
Score [3]: 1
Score [4]: 2
Score [5]: 2
Score [6]: 3
Score [7]: 3
Score [8]: 3
Score [9]: 3
Score [10]: 3
Score [11]: 1
B1: MAB-A (antibody, V domains shown)
VH: QVQLQQPGAELVKPGASVKLSCKASGYTFTSYWMHWVKQRPGQGLEWIGEIIPINGHTNYNEKFKSKATLTLDKSSSTAYMQLSSLASEDSAVYYCARGGYYYYGSRDYFDYWGQGTTLTVSS
VL: DIVLTQSPASLAVSLGQRATISCKASQSVDYDGDSYMNWYQQIPGQPPKLLIYAASDLESGIPARFSGSGSGTDFTLNIHPVEEEDAATYYCQQSHEDPFTFGGGTKLEIK
